IntAct's records for PubMed 29039417

B1: Protein PTHB1 (Homo sapiens), Q3SYG4 (parent)
chain: MSLFKARDWWSTILGDKEEFDQGCLCLANVDNSGNGQDKIIVGSFMGYLRIFSPHPAKTGDGAQAEDLLLEVDLRDPVLQVEVGKFVSGTEMLHLAVLHSRKLCVYSVSGTLGNVEHGNQCQMKLMYEHNLQRTACNMTYGSFGGVKGRDLICIQSMDGMLMVFEQESYAFGRFLPGFLLPGPLAYSSRTDSFLTVSSCQQVESYKYQVLAFATDADKRQETEQQKLGSGKRLVVDWTLNIGEQALDICIVSFNQSASSVFVLGERNFFCLKDNGQIRFMKKLDWSPSCFLPYCSVSEGTINTLIGNHNNMLHIYQDVTLKWATQLPHIPVAVRVGCLHDLKGVIVTLSDDGHLQCSYLGTDPSLFQAPNVQSRELNYDELDVEMKELQKIIKDVNKSQGVWPMTEREDDLNVSVVVSPNFDSVSQATDVEVGTDLVPSVTVKVTLQNRVILQKAKLSVYVQPPLELTCDQFTFEFMTPDLTRTVSFSVYLKRSYTPSELEGNAVVSYSRPTDRNPDGIPRVIQCKFRLPLKLICLPGQPSKTASHKITIDTNKSPVSLLSLFPGFASQSDDDQVNVMGFHFLGGARITVLASKTSQRYRIQSEQFEDLWLITNELILRLQEYFEKQGVKDFACSFSGSIPLQEYFELIDHHFELRINGEKLEELLSERAVQFRAIQRRLLARFKDKTPAPLQHLDTLLDGTYKQVIALADAVEENQGNLFQSFTRLKSATHLVILLIALWQKLSADQVAILEAAFLPLQEDTQELGWEETVDAAISHLLKTCLSKSSKEQALNLNSQLNIPKDTSQLKKHITLLCDRLSKGGRLCLSTDAAAPQTMVMPGGCTTIPESDLEERSVEQDSTELFTNHRHLTAETPRPEVSPLQGVSE
partner: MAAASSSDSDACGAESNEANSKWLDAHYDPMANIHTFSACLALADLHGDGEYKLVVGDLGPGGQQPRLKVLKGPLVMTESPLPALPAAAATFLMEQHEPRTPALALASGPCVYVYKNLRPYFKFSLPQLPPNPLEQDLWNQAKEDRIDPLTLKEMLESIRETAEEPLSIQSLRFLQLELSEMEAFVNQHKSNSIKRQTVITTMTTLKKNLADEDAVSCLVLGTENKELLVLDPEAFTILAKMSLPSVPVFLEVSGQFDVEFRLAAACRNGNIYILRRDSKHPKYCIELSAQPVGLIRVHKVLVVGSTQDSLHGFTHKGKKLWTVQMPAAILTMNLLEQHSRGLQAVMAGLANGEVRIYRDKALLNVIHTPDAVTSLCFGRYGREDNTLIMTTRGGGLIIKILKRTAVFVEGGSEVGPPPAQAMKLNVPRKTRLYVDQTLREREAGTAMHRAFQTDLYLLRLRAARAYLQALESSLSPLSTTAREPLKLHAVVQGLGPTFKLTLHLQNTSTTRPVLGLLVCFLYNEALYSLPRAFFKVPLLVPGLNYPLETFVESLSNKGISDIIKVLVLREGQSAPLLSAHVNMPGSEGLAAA

Variants of: B1
Conditions: with bbs1_human BBS1, Q8NFJ9

effect of a mutation on the interaction	Variant
with no effect	I523A
with no effect	L531A
with no effect	L531K
with no effect	Q524E
with no effect	T702A
with no effect	T763A
with no effect	R868K
with no effect	R669K
with no effect	L799A
with no effect	Q693K
with no effect	G628A
disrupting interaction strength	D747K
with no effect	D480A
with no effect	L620E
with no effect	C469K
with no effect	V424A
with no effect	L655A
with no effect	S855A
with no effect	S855E
with no effect	S855K
with no effect	Q569K
with no effect	I738E
with no effect	F624K
with no effect	F624E
with no effect	Q574A
with no effect	A739E

effect of a mutation on the interaction	Variant
with no effect	E408K
with no effect	L744E
with no effect	P464K
with no effect	F563K
with no effect	K454A
with no effect	A833K
with no effect	G585E
with no effect	L436K
with no effect	P511A
disrupting interaction strength	S507F
with no effect	V461K
with no effect	L784E
with no effect	V413K
with no effect	V413A
with no effect	L692K
with no effect	S637K
with no effect	G565A
with no effect	D573K
with no effect	K456A
with no effect	A544E
with no effect	T865E
with no effect	A670K
with no effect	L757A
disrupting interaction strength	L757I
with no effect	L752E
with no effect	Q539K

effect of a mutation on the interaction	Variant
with no effect	Q791A
with no effect	D700K
with no effect	D700E
with no effect	V590K
with no effect	F724A
with no effect	N553E
with no effect	N553K
with no effect	A730K
with no effect	T512E
with no effect	N515A
with no effect	L559K
with no effect	N719K
with no effect	T844A
disrupting interaction strength	Q597R
with no effect	R483A
with no effect	K685E
with no effect	L591A
with no effect	L591K
with no effect	S418E
with no effect	S820K
with no effect	Q717A
with no effect	Q717E
with no effect	N716K
with no effect	G638E
with no effect	G638K
with no effect	N794E

effect of a mutation on the interaction	Variant
with no effect	N794K
with no effect	N412A
with no effect	W610K
with no effect	E761K
with no effect	C816A
with no effect	L699E
with no effect	P758A
with no effect	F653E
with no effect	A831E
with no effect	G767K
with no effect	E604K
with no effect	T874A
with no effect	E668K
with no effect	Q748E
with no effect	K809A
with no effect	N866K
with no effect	C843E
with no effect	A872K
with no effect	H581E
disrupting interaction strength	E770K
with no effect	P691K
with no effect	K492E
with no effect	I707A
with no effect	T731A
with no effect	L611K
with no effect	S880K

effect of a mutation on the interaction	Variant
with no effect	D551E
with no effect	L698A
with no effect	T771K
with no effect	G433K
with no effect	T613K
with no effect	L827K
with no effect	C634E
with no effect	L736A
with no effect	A504E
with no effect	M837A
with no effect	S545K
with no effect	L536K
with no effect	P689E
with no effect	L759K
with no effect	S498K
with no effect	L560E
with no effect	L560K
with no effect	G884E
with no effect	G884K
disrupting interaction strength	S723A
with no effect	T473K
with no effect	R679E
with no effect	F864K
with no effect	T836E
with no effect	L618E
with no effect	V489A

effect of a mutation on the interaction	Variant
disrupting interaction strength	S667F
with no effect	I588A
with no effect	F646A
with no effect	N503E
with no effect	D696A
with no effect	L795K
with no effect	L795A
with no effect	A792K
disrupting interaction strength	A792E
with no effect	L793K
with no effect	D850K
with no effect	L779E
with no effect	C826E
with no effect	D773E
with no effect	S494E
with no effect	S494A
with no effect	K789A
with no effect	T445A
with no effect	S745E
with no effect	V432K
with no effect	V879K
with no effect	V879E
with no effect	Q643A
with no effect	Q643K
with no effect	N448A
with no effect	P479A

effect of a mutation on the interaction	Variant
with no effect	P479E
disrupting interaction strength	R587T
with no effect	D817E
with no effect	N576K
disrupting interaction strength	L616F
with no effect	I548K
with no effect	I550K
with no effect	L695E
with no effect	K781E
with no effect	S423K
with no effect	S849K
with no effect	F721E
with no effect	V437E
with no effect	E853K
with no effect	Q453A
with no effect	Q453K
with no effect	P641A
with no effect	P641E
with no effect	R514K
disrupting interaction strength	A690K
with no effect	Q426A
with no effect	R510E
with no effect	R510K
with no effect	L819E

Variants of: B1
Conditions: with bbs1_human BBS1, Q8NFJ9
Remark: another data set of the same source

effect of a mutation on the interaction	Variant
disrupting interaction strength	S745E
with no effect	A690K
